{"source": "paper PMC10053881", "about": "(Pharmaceutics, 2023)", "assay": "Biodistribution in SCID mice bearing twin HEK293-SST2R and wtHEK293 tumors", "conditions": "male, mouse, iv, total radioactivity, mean ± sd, n = 4; for tissue uptake at 4 h: 4 h pi; for tissue uptake at 24 h: 24 h pi; for tissue uptake at 48 h: 48 h pi", "procedure": "Freshly harvested HEK293-SST2R cells (1.2 × 10^7cells) and wtHEK293 cells (0.6 × 10^7 cells) were suspended in physiological saline (150 μL) and inoculated in the right and left flanks, respectively, of 43 male SCID mice (23.1 ± 1.6 g body weight, six weeks of age on arrival day; NCSR “Demokritos” Animal House, Athens, Greece). Mice were kept under aseptic conditions for 12–15 days and until palpable tumors (300–600 mg) were grown at the inoculation sites. […] Animals were euthanized at 4 and 24 h pi and immediately dissected. Blood samples, organs of interest and tumors were rapidly collected, weighed and counted in the gamma counter. […] Animals were euthanized at 4, 24 and 48 h pi and the procedure described above was followed. Biodistribution data were calculated with the aid of suitable standards of the administered dose as percent of the injected activity per gram tissue (%IA/g) with excel software (Microsoft Corporation, Redmond, Washington, […], USA). Results were provided as average ± sd values, n = 4 per time point, via the PRISM^TM 6.0 GraphPad software (San Diego, CA, USA). Statistical analysis was performed as previously described.", "key": {"[1]": {"conditions": "in vivo, Tu+ (HEK293-SST2R tumor) uptake, In-111 radioligands, iv 20–25 pmol"}, "[2]": {"conditions": "kidneys, Kidneys uptake, In-111 radioligands, iv 20–25 pmol"}, "[3]": {"conditions": "liver, Liver uptake, In-111 radioligands, iv 20–25 pmol"}, "[4]": {"conditions": "lungs, Lungs uptake, In-111 radioligands, iv 20–25 pmol"}, "[5]": {"conditions": "muscle, Muscle uptake, In-111 radioligands, iv 20–25 pmol"}, "[6]": {"conditions": "pancreas, Pancreas uptake, In-111 radioligands, iv 20–25 pmol"}, "[7]": {"conditions": "spleen, Spleen uptake, In-111 radioligands, iv 20–25 pmol"}, "[8]": {"conditions": "stomach, Stomach uptake, In-111 radioligands, iv 20–25 pmol"}, "[9]": {"conditions": "blood, 40 pmol, Blood uptake, Lu-177 radioligands, iv 40 pmol"}, "[10]": {"conditions": "femur, 40 pmol, Femur uptake, Lu-177 radioligands, iv 40 pmol"}, "[11]": {"conditions": "in vivo, 40 pmol, Tu+ (HEK293-SST2R tumor) uptake, Lu-177 radioligands, iv 40 pmol"}, "[12]": {"conditions": "in vivo, 40 pmol, Tu- (wtHEK293 tumor) uptake, Lu-177 radioligands, iv 40 pmol"}, "[13]": {"conditions": "intestines, 40 pmol, Intestines uptake, Lu-177 radioligands, iv 40 pmol"}, "[14]": {"conditions": "kidneys, 40 pmol, Kidneys uptake, Lu-177 radioligands, iv 40 pmol"}, "[15]": {"conditions": "liver, 40 pmol, Liver uptake, Lu-177 radioligands, iv 40 pmol"}, "[16]": {"conditions": "lungs, 40 pmol, Lungs uptake, Lu-177 radioligands, iv 40 pmol"}, "[17]": {"conditions": "muscle, 40 pmol, Muscle uptake, Lu-177 radioligands, iv 40 pmol"}, "[18]": {"conditions": "pancreas, 40 pmol, Pancreas uptake, Lu-177 radioligands, iv 40 pmol"}, "[19]": {"conditions": "spleen, 40 pmol, Spleen uptake, Lu-177 radioligands, iv 40 pmol"}, "[20]": {"conditions": "stomach, 40 pmol, Stomach uptake, Lu-177 radioligands, iv 40 pmol"}}, "note": "Bridge positions count the residues as written; N and C are the ends. Square brackets hold non-standard residues; d marks the D form. Peptide text beside a SMILES is read from it. * marks the point of attachment. DOTA = O=C(O)CN1CCN(CC(=O)O)CCN(CC(=O)*)CCN(CC(=O)O)CC1; dPhe(4-NHCONH2) = NC(=O)Nc1ccc(C[C@@H](N)C(=O)O)cc1; Phe(4-Cl) = N[C@@H](Cc1ccc(Cl)cc1)C(=O)O"}
{"smiles": "C[C@@H](O)[C@@H]1NC(=O)[C@H](CCCCN)NC(=O)[C@@H](Cc2ccc(NC(N)=O)cc2)NC(=O)[C@H](Cc2ccc(O)cc2)NC(=O)[C@H](NC(=O)[C@H](Cc2ccc(Cl)cc2)NC(=O)CN2CCN(CC(=O)O)CCN(CC(=O)O)CCN(CC(=O)O)CC2)CSSC[C@@H](C(=O)N[C@H](Cc2ccc(O)cc2)C(N)=O)NC1=O", "note": "[[^111In]In-DOTA-LM3, metal not drawn] ({DOTA}-[Phe(4-Cl)][dC]Y[dPhe(4-NHCONH2)]KTC[dY]-NH2; disulfide 2-7)", "values": [{"measurement": "tissue uptake at 4 h", "setting": "[1]", "value": "36.4 ± 2.05", "unit": "%ID/g"}, {"measurement": "tissue uptake at 24 h", "setting": "[1]", "value": "20.9 ± 3.02", "unit": "%ID/g"}, {"measurement": "tissue uptake at 24 h", "setting": "in vivo, Tu- (wtHEK293 tumor) uptake, In-111 radioligands, iv 20–25 pmol", "value": "0.29 ± 0.01", "unit": "%ID/g"}, {"measurement": "tissue uptake at 4 h", "setting": "[2]", "value": "15.4 ± 0.58", "unit": "%ID/g"}, {"measurement": "tissue uptake at 24 h", "setting": "[2]", "value": "4.25 ± 0.77", "unit": "%ID/g"}, {"measurement": "tissue uptake at 4 h", "setting": "[3]", "value": "2.04 ± 0.25", "unit": "%ID/g"}, {"measurement": "tissue uptake at 24 h", "setting": "[3]", "value": "0.58 ± 0.06", "unit": "%ID/g"}, {"measurement": "tissue uptake at 4 h", "setting": "[4]", "value": "3.14 ± 0.48", "unit": "%ID/g"}, {"measurement": "tissue uptake at 24 h", "setting": "[4]", "value": "0.59 ± 0.12", "unit": "%ID/g"}, {"measurement": "tissue uptake at 4 h", "setting": "[5]", "value": "0.08 ± 0.01", "unit": "%ID/g"}, {"measurement": "tissue uptake at 24 h", "setting": "[5]", "value": "0.04 ± 0.02", "unit": "%ID/g"}, {"measurement": "tissue uptake at 4 h", "setting": "[6]", "value": "9.94 ± 0.79", "unit": "%ID/g"}, {"measurement": "tissue uptake at 24 h", "setting": "[6]", "value": "1.2 ± 0.14", "unit": "%ID/g"}, {"measurement": "tissue uptake at 4 h", "setting": "[7]", "value": "0.46 ± 0.05", "unit": "%ID/g"}, {"measurement": "tissue uptake at 24 h", "setting": "[7]", "value": "0.27 ± 0.03", "unit": "%ID/g"}, {"measurement": "tissue uptake at 4 h", "setting": "[8]", "value": "0.8 ± 0.17", "unit": "%ID/g"}, {"measurement": "tissue uptake at 24 h", "setting": "[8]", "value": "0.5 ± 0.09", "unit": "%ID/g"}]}
{"smiles": "C[C@@H](O)[C@@H]1NC(=O)[C@H](CCCCN)NC(=O)[C@@H](Cc2ccc(NC(N)=O)cc2)NC(=O)[C@H](Cc2ccc(O)cc2)NC(=O)[C@H](NC(=O)[C@H](Cc2ccc(Cl)cc2)NC(=O)CN2CCN(CC(=O)O)CCN(CC(=O)O)CCN(CC(=O)O)CC2)CSSC[C@@H](C(=O)N[C@H](Cc2ccc(O)cc2)C(N)=O)NC1=O", "note": "[[^177Lu]Lu-DOTA-LM3, metal not drawn] ({DOTA}-[Phe(4-Cl)][dC]Y[dPhe(4-NHCONH2)]KTC[dY]-NH2; disulfide 2-7)", "values": [{"measurement": "tissue uptake at 24 h", "setting": "[9]", "value": 0.07, "unit": "%ID/g"}, {"measurement": "tissue uptake at 48 h", "setting": "[9]", "value": "0.06 ± 0.01", "unit": "%ID/g"}, {"measurement": "tissue uptake at 4 h", "setting": "[10]", "value": "1.56 ± 0.24", "unit": "%ID/g"}, {"measurement": "tissue uptake at 24 h", "setting": "[10]", "value": "1.38 ± 0.18", "unit": "%ID/g"}, {"measurement": "tissue uptake at 48 h", "setting": "[10]", "value": "0.88 ± 0.05", "unit": "%ID/g"}, {"measurement": "tissue uptake at 48 h", "setting": "heart, 40 pmol, Heart uptake, Lu-177 radioligands, iv 40 pmol", "value": "0.13 ± 0.02", "unit": "%ID/g"}, {"measurement": "tissue uptake at 4 h", "setting": "[11]", "value": "45.5 ± 1.66", "unit": "%ID/g"}, {"measurement": "tissue uptake at 24 h", "setting": "[11]", "value": "37.6 ± 3.42", "unit": "%ID/g"}, {"measurement": "tissue uptake at 48 h", "setting": "[11]", "value": "18.8 ± 0.88", "unit": "%ID/g"}, {"measurement": "tissue uptake at 4 h", "setting": "[12]", "value": "1.66 ± 0.14", "unit": "%ID/g"}, {"measurement": "tissue uptake at 24 h", "setting": "[12]", "value": "1.53 ± 0.15", "unit": "%ID/g"}, {"measurement": "tissue uptake at 48 h", "setting": "[12]", "value": "0.75 ± 0.08", "unit": "%ID/g"}, {"measurement": "tissue uptake at 4 h", "setting": "[13]", "value": "2.71 ± 0.18", "unit": "%ID/g"}, {"measurement": "tissue uptake at 24 h", "setting": "[13]", "value": "1.52 ± 0.21", "unit": "%ID/g"}, {"measurement": "tissue uptake at 48 h", "setting": "[13]", "value": "0.78 ± 0.09", "unit": "%ID/g"}, {"measurement": "tissue uptake at 4 h", "setting": "[14]", "value": "11.5 ± 0.26", "unit": "%ID/g"}, {"measurement": "tissue uptake at 24 h", "setting": "[14]", "value": "5.14 ± 0.92", "unit": "%ID/g"}, {"measurement": "tissue uptake at 48 h", "setting": "[14]", "value": "2.47 ± 0.67", "unit": "%ID/g"}, {"measurement": "tissue uptake at 4 h", "setting": "[15]", "value": "6.79 ± 0.84", "unit": "%ID/g"}, {"measurement": "tissue uptake at 24 h", "setting": "[15]", "value": "3.38 ± 0.89", "unit": "%ID/g"}, {"measurement": "tissue uptake at 48 h", "setting": "[15]", "value": "1.47 ± 0.05", "unit": "%ID/g"}, {"measurement": "tissue uptake at 4 h", "setting": "[16]", "value": "15.7 ± 1.2", "unit": "%ID/g"}, {"measurement": "tissue uptake at 24 h", "setting": "[16]", "value": "8.88 ± 0.26", "unit": "%ID/g"}, {"measurement": "tissue uptake at 48 h", "setting": "[16]", "value": "5.11 ± 0.63", "unit": "%ID/g"}, {"measurement": "tissue uptake at 4 h", "setting": "[17]", "value": "0.07 ± 0.01", "unit": "%ID/g"}, {"measurement": "tissue uptake at 24 h", "setting": "[17]", "value": "0.05 ± 0.01", "unit": "%ID/g"}, {"measurement": "tissue uptake at 48 h", "setting": "[17]", "value": 0.05, "unit": "%ID/g"}, {"measurement": "tissue uptake at 4 h", "setting": "[18]", "value": "46.6 ± 2.2", "unit": "%ID/g"}, {"measurement": "tissue uptake at 24 h", "setting": "[18]", "value": "23 ± 4.32", "unit": "%ID/g"}, {"measurement": "tissue uptake at 48 h", "setting": "[18]", "value": "7.85 ± 0.94", "unit": "%ID/g"}, {"measurement": "tissue uptake at 4 h", "setting": "[19]", "value": "0.81 ± 0.06", "unit": "%ID/g"}, {"measurement": "tissue uptake at 24 h", "setting": "[19]", "value": "0.56 ± 0.07", "unit": "%ID/g"}, {"measurement": "tissue uptake at 48 h", "setting": "[19]", "value": "0.4 ± 0.03", "unit": "%ID/g"}, {"measurement": "tissue uptake at 4 h", "setting": "[20]", "value": "14.6 ± 1.85", "unit": "%ID/g"}, {"measurement": "tissue uptake at 24 h", "setting": "[20]", "value": "8.03 ± 1.43", "unit": "%ID/g"}, {"measurement": "tissue uptake at 48 h", "setting": "[20]", "value": "3.27 ± 0.34", "unit": "%ID/g"}]}
